Assay [1] concerns the target T1, human DLL3 (antigen of Example 30) (human, UniProt Q9NYJ7 27-492, limits assumed).
T1 construct: also called hDLL3
T1 sequence (looked up): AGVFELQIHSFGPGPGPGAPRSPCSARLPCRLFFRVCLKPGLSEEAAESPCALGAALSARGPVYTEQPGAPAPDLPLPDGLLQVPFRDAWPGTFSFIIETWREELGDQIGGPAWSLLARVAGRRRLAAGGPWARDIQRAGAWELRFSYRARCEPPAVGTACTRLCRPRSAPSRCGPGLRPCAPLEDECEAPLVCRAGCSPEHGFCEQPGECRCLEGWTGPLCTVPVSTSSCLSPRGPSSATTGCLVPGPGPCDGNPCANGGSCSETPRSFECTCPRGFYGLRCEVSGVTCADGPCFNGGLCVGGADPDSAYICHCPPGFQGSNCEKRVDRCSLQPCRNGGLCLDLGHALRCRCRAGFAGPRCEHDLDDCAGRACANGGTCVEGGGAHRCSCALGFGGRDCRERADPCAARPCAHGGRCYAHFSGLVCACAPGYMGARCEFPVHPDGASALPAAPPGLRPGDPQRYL
Nature of the assay: BLI (Octet), tetramer captured on AHC sensor, antigen as analyte. A general note: Biolayer interferometry detects binding as a change in optical thickness at a sensor tip.

Assay [2] concerns the target T2, murine FOLR1 (antigen of the Octet assay) (murine, UniProt P35846 25-232, limits assumed).
T2 construct: also called mFOLR1
The description is as above.

The target of assay [3] is T3, FOLR1 on cells (OVCAR3, OV-90) (UniProt P15328 25-234).
T3 construct: whole, on cells; also called FOLR1-positive OVCAR3 cells; FOLR1 expressing OV-90 cells
T3 sequence (P15328 25-234): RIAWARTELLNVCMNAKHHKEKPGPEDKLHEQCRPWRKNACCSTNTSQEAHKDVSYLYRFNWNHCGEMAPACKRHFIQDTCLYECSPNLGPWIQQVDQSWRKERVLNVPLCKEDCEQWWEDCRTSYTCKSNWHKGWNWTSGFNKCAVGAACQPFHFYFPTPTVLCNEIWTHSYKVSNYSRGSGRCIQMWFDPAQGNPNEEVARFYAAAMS
Briefly: flow cytometry on FOLR1 expressing OV-90 cells, Geomeans RL1-H against Conc (nM); linker not printed on the sheet, taken as the (GGS)3 parent of the conjugate [bottom panel].

Assay [4] deals with T4, human FOLR1 (antigen of the Octet assay) (human, UniProt P15328 25-234, limits assumed).
T4 construct: also called hFOLR1
T4 sequence (P15328 25-234 limits assumed): as the sequence (P15328 25-234) above
Nature of the assay: BLI (Octet), tetramer captured on AHC sensor, antigen as analyte.

Assay [5] has as its target T3, FOLR1 on cells (OVCAR3, OV-90). Briefly: binding to FOLR1-positive OVCAR3 cells.
The target of assay [6] is T5, FcγRIIa (R167) (biotinylated, Acro Biosystems) (UniProt P12318 36-218, biotinylated).
T5 sequence (looked up): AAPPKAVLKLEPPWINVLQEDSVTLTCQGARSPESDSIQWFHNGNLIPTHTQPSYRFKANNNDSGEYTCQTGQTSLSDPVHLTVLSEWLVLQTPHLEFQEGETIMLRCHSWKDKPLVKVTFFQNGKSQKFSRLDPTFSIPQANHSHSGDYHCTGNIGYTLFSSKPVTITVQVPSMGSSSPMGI
Briefly: BLI (Octet), biotinylated FcγR on SA sensor, steady state analysis.

In assay [7] the target is biotinylated hFcRn (Sino Biological, Cat #: CT071-H27H-B) (human, UniProt P55899 24-297; P61769 21-119, biotinylated). Briefly: BLI (Octet), biotinylated hFcRn on SA sensor, pH 6.0, 2:1 heterogeneous ligand model.
Assay [8] deals with T6, FcγRIIa (H167) (biotinylated, Acro Biosystems) (UniProt P12318 36-218, biotinylated).
T6 sequence (looked up): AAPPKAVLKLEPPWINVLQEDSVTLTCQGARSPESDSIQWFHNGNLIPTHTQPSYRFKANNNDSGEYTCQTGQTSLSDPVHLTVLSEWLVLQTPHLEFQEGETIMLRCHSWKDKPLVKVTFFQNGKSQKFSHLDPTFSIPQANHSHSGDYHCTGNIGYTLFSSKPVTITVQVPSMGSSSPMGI
Briefly: BLI, biotinylated FcγR on SA sensor.

Assay [9] deals with FcγRIIIa (V176) (biotinylated, Acro Biosystems) (UniProt P08637 17-208, biotinylated). Nature of the assay: BLI, biotinylated FcγR on SA sensor.
FcγRIIIa (V176) (biotinylated, Acro Biosystems), sequence (P08637 17-208 F176V limits assumed): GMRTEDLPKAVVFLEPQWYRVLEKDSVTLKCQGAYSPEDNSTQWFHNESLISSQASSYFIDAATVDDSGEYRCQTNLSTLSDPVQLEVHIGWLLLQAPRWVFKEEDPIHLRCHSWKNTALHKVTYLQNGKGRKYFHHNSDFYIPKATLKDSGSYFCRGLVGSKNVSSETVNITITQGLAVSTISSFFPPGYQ
Assay [10] has as its target FcγRIIIa (F176) (biotinylated, Acro Biosystems) (UniProt P08637 17-208, biotinylated). Nature of the assay: BLI, biotinylated FcγR on SA sensor.
In assay [11] the target is T7, FcγRIIb/c (biotinylated, Acro Biosystems) (UniProt P31994 46-217, biotinylated).
T7 sequence (looked up): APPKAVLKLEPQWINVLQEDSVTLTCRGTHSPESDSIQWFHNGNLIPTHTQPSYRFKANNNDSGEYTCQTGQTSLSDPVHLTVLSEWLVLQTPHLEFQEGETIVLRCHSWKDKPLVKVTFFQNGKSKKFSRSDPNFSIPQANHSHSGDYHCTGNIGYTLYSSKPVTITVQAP
Nature of the assay: BLI (Octet), biotinylated FcγR on SA sensor, steady state analysis.

Assay [12] concerns the target FcγRI (biotinylated, Acro Biosystems) (UniProt P12314 16-288, biotinylated). Briefly: BLI, biotinylated FcγR on SA sensor.

FcγRIIIa (F176) (biotinylated, Acro Biosystems), sequence (P08637 17-208 limits assumed): as the sequence (P08637 17-208 F176V limits assumed) above, with V160F counted along it
FcγRI (biotinylated, Acro Biosystems), sequence (P12314 16-288 limits assumed): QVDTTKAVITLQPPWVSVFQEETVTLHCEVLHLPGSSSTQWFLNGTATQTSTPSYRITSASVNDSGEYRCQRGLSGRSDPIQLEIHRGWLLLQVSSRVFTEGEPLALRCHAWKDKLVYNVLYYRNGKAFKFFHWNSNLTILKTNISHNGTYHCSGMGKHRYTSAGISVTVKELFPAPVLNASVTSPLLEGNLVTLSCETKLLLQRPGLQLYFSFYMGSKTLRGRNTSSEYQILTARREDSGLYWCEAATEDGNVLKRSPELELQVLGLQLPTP
T2 sequence (P35846 25-232 limits assumed): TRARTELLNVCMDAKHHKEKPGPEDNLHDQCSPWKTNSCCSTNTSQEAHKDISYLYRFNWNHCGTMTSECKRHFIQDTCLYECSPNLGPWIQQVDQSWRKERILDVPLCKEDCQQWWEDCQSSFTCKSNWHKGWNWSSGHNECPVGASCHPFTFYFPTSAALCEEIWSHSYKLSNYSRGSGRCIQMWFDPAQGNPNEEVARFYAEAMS

B1: Anti-FOLR1x2; Anti-DLL3x2; (GGS)3 tetramer (bispecific antibody)
chain (part 1 of 2): QVQLVESGGGLVQPGGSLRLSCAASGFTVSNSVMAWYRQTPGNEREFVAIINSIGITNYADSVKGRFTISRDNSKNTLYLQMNSLRAEDTAVYVCNRNFDRIYWGQGTLVTVSSGGSGGSGGSEVQLVESGGGEVQPGGSLRLSCAASGSIFSINAMGWYRQAPGKQRELVAGFTGDTNTIYAESVKGRFTISRDNAKNTVYLQMSSLRAEDTAVYYCAADVQLFSRDYEFYWGQGTLVTVKP
chain (part 2 of 2): not shown
notes: As m61 with the (GGS)3 linker; also called bispecific tetramer GGSx3; not shown: hinge
Regarding B1, the binding result in [1] and in assay [2] was “binds” each time. The EC50 (read off the curve) – broadly, the midpoint of the concentration-response curve – in assay [3] was roughly 3 nM.

B2: Anti-FOLR1x2; Anti-DLL3x2; (GGS)4 tetramer (bispecific antibody)
chain (part 1 of 2): QVQLVESGGGLVQPGGSLRLSCAASGFTVSNSVMAWYRQTPGNEREFVAIINSIGITNYADSVKGRFTISRDNSKNTLYLQMNSLRAEDTAVYVCNRNFDRIYWGQGTLVTVSSGGSGGSGGSGGSEVQLVESGGGEVQPGGSLRLSCAASGSIFSINAMGWYRQAPGKQRELVAGFTGDTNTIYAESVKGRFTISRDNAKNTVYLQMSSLRAEDTAVYYCAADVQLFSRDYEFYWGQGTLVTVKP
chain (part 2 of 2): not shown
notes: As m61 with the (GGS)4 linker; also called bispecific tetramer GGSx4; not shown: hinge
As to B2, the binding result in assay [1], in assay [4], in assay [2] and in assay [5] was “binds” each time.

B3: Anti-FOLR1x2; Anti-DLL3x2; (GGGGS)3 tetramer (bispecific antibody)
chain (part 1 of 2): QVQLVESGGGLVQPGGSLRLSCAASGFTVSNSVMAWYRQTPGNEREFVAIINSIGITNYADSVKGRFTISRDNSKNTLYLQMNSLRAEDTAVYVCNRNFDRIYWGQGTLVTVSSGGGGSGGGGSGGGGSEVQLVESGGGEVQPGGSLRLSCAASGSIFSINAMGWYRQAPGKQRELVAGFTGDTNTIYAESVKGRFTISRDNAKNTVYLQMSSLRAEDTAVYYCAADVQLFSRDYEFYWGQGTLVTVKP
chain (part 2 of 2): not shown
notes: entry chosen by mutation status; also called bispecific tetramer GGGGSx3; not shown: hinge
With B3, the binding result in assay [1], in assay [4], in assay [2] and in assay [5] was “binds” in each case.

B4: H133 (Fc fusion)
chain (part 1 of 2): QVQLQESGGGSVQAGGSLKLTCAASGYIFNSCGMGWYRQSPGRERELVSRISGDGDTWHKESVKGRFTISQDNVKKTLYLQMNSLKPEDTAVYFCAVCYNLETYWGQGTQVTVSS
chain (part 2 of 2): APEAEGAPSVFLFPPKPKDTLMISRTPEVTCVVVDVSHEDPEVKFNWYVDGVEVHNAKTKPREEQYNSTYRVVSVLTVLHQDWLNGKEYKCKVSNKALPSSIEKTISKAKGQPREPQVYTLPPSREEMTKNQVSLTCLVKGFYPSDIAVEWESNGQPENNYKTTPPVLDSDGSFFLYSKLTVDKSRWQQGNVFSCSVMHEALHNHYTQKSLSLSPG
notes: not shown: hinge; copies: 2 + 2
With B4, the dissociation constant Kd (usually the equilibrium constant for the complex coming apart) is 2300 nM in assay [6] and 2.1 nM in assay [7]. The binding result in assay [8], in assay [9] and in [10] was “no binding” throughout.

B5: D134 (Fc fusion)
chain (part 1 of 2): EVQLVESGGGEVQPGGSLRLSCAASGSIFSINAMGWYRQAPGKQRELVAGFTGDTNTIYAESVKGRFTISRDNAKNTVYLQMSSLRAEDTAVYYCAADVQLFSRDYEFYWGQGTLVTVKP
chain (part 2 of 2): APEAEGAPSVFLFPPKPKDTLMISRTPEVTCVVVDVSHEDPEVKFNWYVDGVEVHNAKTKPREEQYNSTYRVVSVLTVLHQDWLNGKEYKCKVSNKALPSSIEKTISKAKGQPREPQVYTLPPSREEMTKNQVSLTCLVKGFYPSDIAVEWESNGQPENNYKTTPPVLDSDGSFFLYSKLTVDKSRWQQGNVFSCSVMHEALHNHYTQKSLSLSPG
notes: as for B4
With B5, the results for the dissociation constant Kd in assay [11], in assay [6] and in [7] were 1100 nM, 460 nM and 1.9 nM, respectively. Further, the binding result in [9], in assay [10] and in [12] was “no binding” each time.

B6: H137 (Fc fusion)
chain (part 1 of 2): QVQLQESGGGSVQAGGSLKLTCAASGYIFNSCGMGWYRQSPGRERELVSRISGDGDTWHKESVKGRFTISQDNVKKTLYLQMNSLKPEDTAVYFCAVCYNLETYWGQGTQVTVSS
chain (part 2 of 2): APEAEGAPSVFLFPPKPKDTLMISRTPEVTCVVVDVSHEDPEVKFNWYVDGVEVHNAKTKPREEQYNSTYRVVSVLTVLHQDWLNGKEYKCKVSNKALPSSIEKTISKAKGQPREPQVYTLPPSREEMTKNQVSLTCLVKGFYPSDIAVEWESNGQPENNYKTTPPVLDSDGSFFLYSKLTVDKSRWQQGNVFSCSVMHEALHNQYTQKSLSLSPG
notes: as for B4
Turning to B6, the equilibrium dissociation constant (Kd) in [6] came to 1200 nM. Further, the binding result in assay [8], in assay [9], in assay [10] and in assay [12] was “no binding” in each case.

B7: D138 (Fc fusion)
chain (part 1 of 2): EVQLVESGGGEVQPGGSLRLSCAASGSIFSINAMGWYRQAPGKQRELVAGFTGDTNTIYAESVKGRFTISRDNAKNTVYLQMSSLRAEDTAVYYCAADVQLFSRDYEFYWGQGTLVTVKP
chain (part 2 of 2): APEAEGAPSVFLFPPKPKDTLMISRTPEVTCVVVDVSHEDPEVKFNWYVDGVEVHNAKTKPREEQYNSTYRVVSVLTVLHQDWLNGKEYKCKVSNKALPSSIEKTISKAKGQPREPQVYTLPPSREEMTKNQVSLTCLVKGFYPSDIAVEWESNGQPENNYKTTPPVLDSDGSFFLYSKLTVDKSRWQQGNVFSCSVMHEALHNQYTQKSLSLSPG
notes: as for B4
Consider B7, for which the Kd in assay [11] stood at 770 nM; in assay [6], 520 nM. In addition, the binding result in [9] and in assay [10] was “no binding” each time.

B8: D136 (Fc fusion)
chain (part 1 of 2): EVQLVESGGGEVQPGGSLRLSCAASGSIFSINAMGWYRQAPGKQRELVAGFTGDTNTIYAESVKGRFTISRDNAKNTVYLQMSSLRAEDTAVYYCAADVQLFSRDYEFYWGQGTLVTVKP
chain (part 2 of 2): APEAEGAPSVFLFPPKPKDTLMISRTPEVTCVVVDVSHEDPEVKFNWYVDGVEVHNAKTKPREEQYNSTYRVVSVLTVLAQDWLNGKEYKCKVSNKALPSSIEKTISKAKGQPREPQVYTLPPSREEMTKNQVSLTCLVKGFYPSDIAVEWESNGQPENNYKTTPPVLDSDGSFFLYSKLTVDKSRWQQGNVFSCSVMHEALHNHYTQKSLSLSPG
notes: as for B4
In the case of B8, the figures for the Kd in assay [11] and in assay [6] were 2200 nM and 570 nM, respectively. Further, the binding result in assay [9], in assay [10] and in assay [12] was “no binding” throughout.

B9: H135 (Fc fusion)
chain (part 1 of 2): QVQLQESGGGSVQAGGSLKLTCAASGYIFNSCGMGWYRQSPGRERELVSRISGDGDTWHKESVKGRFTISQDNVKKTLYLQMNSLKPEDTAVYFCAVCYNLETYWGQGTQVTVSS
chain (part 2 of 2): APEAEGAPSVFLFPPKPKDTLMISRTPEVTCVVVDVSHEDPEVKFNWYVDGVEVHNAKTKPREEQYNSTYRVVSVLTVLAQDWLNGKEYKCKVSNKALPSSIEKTISKAKGQPREPQVYTLPPSREEMTKNQVSLTCLVKGFYPSDIAVEWESNGQPENNYKTTPPVLDSDGSFFLYSKLTVDKSRWQQGNVFSCSVMHEALHNHYTQKSLSLSPG
notes: as for B4
In turn, B9 gave a Kd in assay [6] of 1200 nM. In addition, the binding result in [8], in assay [9], in assay [10] and in assay [12] was “no binding” each time.

The record behind these values is patent publication US20260137822A1 (ABDERA THERAPEUTICS, published 2026).
